Reference: publication PMC6021441, “Structural basis of the correct subunit assembly, aggregation, and intracellular degradation of nylon hydrolase” (Scientific Reports, 2018)

Columns and labels:
[1] = target: T1, NylCp2 alpha subunit (27 kDa), wild type (Arthrobacter, UniProt Q79F77 1-266); experiment: crystal structure; sitting-drop vapor diffusion, ammonium sulfate, 0.1 M HEPES pH 7.5, 0.2 M NaCl, 25% glycerol; space group C222_(1), two molecules (A/B dimer) in the asymmetric unit, tetramer by the crystallographic two-fold axis; conditions: both partners purified
T1 construct: NylCp2, alpha subunit made by autocleavage of the 355-residue precursor between Asn266 and Thr267; also called α subunit; source: E. coli JM109, purified with the beta subunit as the active enzyme
T1 sequence (looked up): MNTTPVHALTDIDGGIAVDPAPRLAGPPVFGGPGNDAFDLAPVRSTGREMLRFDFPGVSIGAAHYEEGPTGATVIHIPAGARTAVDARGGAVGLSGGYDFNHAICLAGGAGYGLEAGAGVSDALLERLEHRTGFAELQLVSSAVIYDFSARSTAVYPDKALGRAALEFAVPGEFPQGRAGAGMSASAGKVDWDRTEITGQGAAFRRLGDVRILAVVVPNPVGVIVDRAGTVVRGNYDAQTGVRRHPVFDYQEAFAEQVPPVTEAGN

[2] = target: T2, NylCp2-K^122 alpha subunit (D122K) (Arthrobacter, UniProt Q79F77 1-266, D122K); experiment: as above; conditions: both partners purified
T2 construct: NylCp2 alpha subunit with D122K; also called α subunit of NylCp2-K^122; source: E. coli JM109, purified with the beta subunit as the active enzyme
T2 sequence (looked up): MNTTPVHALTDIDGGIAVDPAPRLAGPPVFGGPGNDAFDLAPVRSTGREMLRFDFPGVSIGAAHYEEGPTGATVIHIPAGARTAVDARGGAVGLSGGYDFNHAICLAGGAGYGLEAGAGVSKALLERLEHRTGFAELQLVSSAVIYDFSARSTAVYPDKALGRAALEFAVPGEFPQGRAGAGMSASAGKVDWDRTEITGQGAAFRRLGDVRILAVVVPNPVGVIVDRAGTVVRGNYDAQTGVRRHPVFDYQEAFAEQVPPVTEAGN

B1: NylCp2 beta subunit (9 kDa) (domain or fragment, Arthrobacter, UniProt Q79F77 267-355, looked up)
chain: TTISAIVTNVRMSPVELNQFAKQVHSSMHRGIQPFHTDMDGDTLFAVTTDEIDLPTTPGSSRGRLSVNATALGAIASEVMWDAVLEAGK
notes: NylCp2, beta subunit made by autocleavage of the 355-residue precursor between Asn266 and Thr267; the same in the wild type and in the mutants crystallised here (all their substitutions lie in the alpha subunit); also called β subunit; source: E. coli JM109, purified with the alpha subunit as the active enzyme
B1: binds [1]; binds [2].
